According to patent US20080207488A1, “Method for Detecting Peptides Comprising a Cross-B Structure” (priority 2005, published 2008):

Key:
[1] = target: T1, human fibronectin finger 4,5 (Fn F4,5) fragment (Homo sapiens, UniProt P02751); experiment: ELISA, binding of fibronectin F4,5 to coated (mis)folded proteins; conditions: coated protein, FIG. 7D-H
T1 construct: human fibronectin finger 4,5 (Fn F4,5) fragment; made in house; host or cells: HEK293E cells, transient transfection, protein purified from the medium
T1 sequence (P02751 182-276 limits assumed): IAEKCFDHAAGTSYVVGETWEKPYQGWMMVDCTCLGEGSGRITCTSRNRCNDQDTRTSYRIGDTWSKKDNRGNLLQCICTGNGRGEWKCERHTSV
Experimental: (§1) The plates were blocked using Blocking reagent (Roche 1112589). A dilution series of the protein of interest was applied to the coated proteins and wells were subsequently washed using TBS-T (50 mM Tris pH 7.3, 150 mM NaCl and 0.1% Tween20). Bound protein is detected by the FLAG-tag using 1:3000 anti-FLAG-HRP (Sigma A-8592) in PBS-T, or by 1:1000 Ni-NTA-HRP (Qiagen 34530) in PBS-T. The HRP reaction Is performed using the TMB substrate (Biosource 4501103 or Tebu Bio 101TMB100-500), stopped using 10% H2SO4 and absorbance was measured at 450 nm.

[2] = tested on: human tissue-type plasminogen activator finger EGF (tPA F-EGF) fragment; experiment: ELISA, binding of tPA F-EGF to coated (mis)folded proteins; conditions: coated protein, FIG. 7A, I
Sequence of human tissue-type plasminogen activator finger EGF (tPA F-EGF) fragment (P00750 39-120 limits assumed): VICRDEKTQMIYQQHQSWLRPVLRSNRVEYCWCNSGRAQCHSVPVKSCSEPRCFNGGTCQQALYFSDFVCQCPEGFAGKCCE
Experimental: as §1

[3] = Thioflavin T fluorescence; assay type: physicochemical
Experimental: Fluorescence of ThT-protein/peptide adducts was measured as follows. […] Fluorescence was measured at 485 nm upon excitation at 435 nm. Background signals from buffer, buffer with ThT and protein/peptide solution without ThT were subtracted from corresponding measurements with protein solution incubated with ThT. […] Fluorescence was measured in triplicate on a Hitachi F-4500 fluorescence spectrophotometer (Ltd., Tokyo, Japan).
Formulated protein therapeutics were obtained from the local hospital pharmacy and were used as supplied by the manufacturers. […] Lyophilized therapeutics were dissolved according to the manufacturers recommendations. […] Enhancement in fluorescence of ThT and Congo red was measured with all formulated protein therapeutics. […]
To prepare structurally altered ovalbumin (OVA) with amyloid cross-β structure conformation, purified OVA (Sigma, A-7641, lot 071k7094) was heated to 85° C. […] Native OVA (nOVA) and heat-denatured OVA (dOVA) were tested in the ThT fluorescence assay and in the Plg-activation assay. In the fluorescence assay and in the Plg-activation assay, 25 and 100 μg ml^−1 nOVA and dOVA were tested, respectively. […] In the ThT-fluorescence assay 25 μg ml^−1 nMSA and alkyl-MSA were tested, and in the Plg-activation assay 100 μg ml^−1 was tested. The presence of aggregates or fibrils was analyzed using TEM. […]

Balb/c mice [4] = experiment: Immunization of Balb/c mice with ovalbumin and amyloid-like ovalbumin; assay type: in vivo; conditions: without adjuvant
Experimental: Eight to ten weeks old female Balb/c mice are immunized with OVA according to two immunization regimes (Central Animal Laboratories, Utrecht University, The Netherlands). Pre-immune serum was collected prior to the immunizations. In one regime two groups of five mice were subcutaneously injected five consecutive days per week, for three consecutive weeks. Doses comprised 10 μg native OVA or heat-denatured OVA for each injection. Alternatively, according to the second protocol, three groups of five mice were injected once intraperitoneally with doses comprising 5 μg nOVA, 5 μg OVA or 5 μg native OVA mixed 1:1 with complete Freund's adjuvant (CFA). Each week, blood was taken. After three weeks, a second dose was given. Incomplete Freund's adjuvant (IFA) was used instead of CFA. Blood was taken after one week after the start of the immunization. Antibody titers in sera were determined and sera were analyzed for the presence of cross-β structure conformation specific antibodies. For this purpose, nOVA was coated onto wells of 96-wells ELISA plates and incubated with dilution series of sera. Sera of the groups of five mice were pooled prior to the analyses. Plates were washed and subsequently incubated with peroxidase-conjugated rabbit anti-mouse immunoglobulins (RAMPO, P0260, DAKOCytomation, Glostrup, Denmark). Plates were subsequently developed with tetramethylbenzidine (TMB) substrate. […]

Balb/c mice [5] = experiment: Immunization of mice with β2gpi preparations, serum binding to murine β2gpi; assay type: in vivo; conditions: 100-fold diluted sera
Experimental: Female BalB/C cAnNHSd (Harlan) 7-9 weeks were housed in filtertop cages in groups of 5 mice per group. After approximately one week of adjustment to the environment, pre-immune sera were drawn. On the start of the first week, mice were given either 100 μl plasma (150 μg/ml) β2-Glycoprotein 1,100 μl alkyl-β2-Glycoprotein I (150 μg/ml) or 100 μl of a mixture of 150 μg/ml of 82-Glycoprotein I with 9.33 μM cardiolipin (CL-β2gpi). This latter sample was prepared by pre-incubating 400 μg/ml of 62-GPI with 25 μM of cardiolipin vesicles for at least 10 minutes at RT after mixing the sample by pipetting; afterwards samples were diluted to 150 μg/ml. […] All dilutions were made freshly in TBS and kept on ice. Injections were given intravenously in the tail veins of the mice and given on Mondays and Fridays of the first and third week. Blood was drawn three days prior to the experiment, and on Wednesdays of week 2 and 4 by puncture of vena Saphena. Blood was collected in Easycollect tubes, with Z serum clot activator. Sera were prepared by centrifugation in a tabletop centrifuge, with a rotor diameter of 7 cm, at 3800 rpm for 10 minutes (slow start and stop) and stored at −20° C. before analysis.
In this way, it was determined whether immunizations of mice with human β2gpi elicits a humoral auto-immune response against murine β2gpi.

Balb/c mice [6] = experiment: Immunization of mice with β2gpi preparations, titers against native human β2gpi; assay type: in vivo; conditions: four injections of 15 μg antigen
Experimental: Female BalB/C cAnNHSd (Harlan) 7-9 weeks were housed in filtertop cages in groups of 5 mice per group. After approximately one week of adjustment to the environment, pre-immune sera were drawn. On the start of the first week, mice were given either 100 μl plasma (150 μg/ml) β2-Glycoprotein 1,100 μl alkyl-β2-Glycoprotein I (150 μg/ml) or 100 μl of a mixture of 150 μg/ml of 82-Glycoprotein I with 9.33 μM cardiolipin (CL-β2gpi). This latter sample was prepared by pre-incubating 400 μg/ml of 62-GPI with 25 μM of cardiolipin vesicles for at least 10 minutes at RT after mixing the sample by pipetting; afterwards samples were diluted to 150 μg/ml. […]
Sera were analyzed for antibodies against unmodified native (coated) β2-GPI. […] Antibody titers were determined by adding pooled sera of each experimental group (n=5) in three-fold serial dilutions (starting from 1:30, 50 μl/well) to plates coated with native human β2gpi. […] The plates were stained for approximately 5 minutes using 100 μL/well of TMB substrate (Biosource Europe, Nivelles, Belgium), the reaction was stopped with 50 μL/well of 2 M H2SO4 and read at 450 nm on a Spectramax340 microplate reader. The absorbance values were plotted against log dilution. […] For comparison, the dilution that yielded a residual absorbance after background subtraction of 0.1 was arbitrarily taken as the titer of the various sera.

B1: dOVA: ovalbumin heat-denatured at 85° C., amyloid-like (protein)
chain: GSIGAASMEFCFDVFKELKVHHANENIFYCPIAIMSALAMVYLGAKDSTRTQINKVVRFDKLPGFGDSIEAQCGTSVNVHSSLRDILNQITKPNDVYSFSLASRLYAEERYPILPEYLQCVKELYRGGLEPINFQTAADQARELINSWVESQTNGIIRNVLQPSSVDSQTAMVLVNAIVFKGLWEKAFKDEDTQAMPFRVTEQESKPVQMMYQIGLFRVASMASEKMKILELPFASGTMSMLVLLPDEVSGLEQLESIINFEKLTEWTSSNVMEERKIKVYLPRMKMEEKYNLTSVLMAMGITDVFSSSANLSGISSAESLKISQAVHAAHAEINEAGREVVGSAEAGVDAASVSEEFRADHPFLFCIKHIATNAVLFFGRCVSP
[1]
  affinity of fibronectin F4,5 (detection anti-FLAG HRP): clear difference in binding affinity
[2]
  binding of tPA F-EGF: Much lower binding
[3]; 25 μg ml^−1
  ThT fluorescence enhancement of native and denatured proteins: filtration through a 0.2 μm filter does not reduce the enhancement of ThT fluorescence
Balb/c mice [4]
  anti-nOVA antibody titers in pooled sera: higher antibody titers

B2: alkyl-β2gpi: reduced and alkylated human β2-glycoprotein I (protein, UniProt P02749 20-345, looked up)
Beta-2-glycoprotein 1: GRTCPKPDDLPFSTVVPLKTFYEPGEEITYSCKPGYVSRGGMRKFICPLTGLWPINTLKCTPRVCPFAGILENGAVRYTTFEYPNTISFSCNTGFYLNGADSAKCTEEGKWSPELPVCAPIICPPPSIPTFATLRVYKPSAGNNSLYRDTAVFECLPQHAMFGNDTITCTTHGNWTKLPECREVKCPFPSRPDNGFVNYPAKPTLYYKDKATFGCHDGYSLDGPEEIECTKLGNWSAMPSCKASCKVPVKKATVVYQGERVKIQEKFKNGMLHGDKVSFFCKNKEKKCSYTEDAQCIDGTIEVPKCFKEHSSLAFWKTDASDVKPC
modifications: reduced and alkylated
notes: reduced and alkylated human β2-glycoprotein I
[3]; compared with native β2gpi
  Thioflavin T fluorescence of modified β2gpi: enhanced Thioflavin T fluorescence
Balb/c mice [5]
  titers against mouse self-β2gpi: higher titers against mouse self-β2gpi
Balb/c mice [6]
  humoral immune response compared to native β2gpi: far higher humoral immune responses
